The source of these data is PMC3531487, “An Allele of an Ancestral Transcription Factor Dependent on a Horizontally Acquired Gene Product” (PLoS Genetics, 2012).

This data set concerns the molecule itself. The experiment in a line: SEC; analytical gel filtration; PmrA (50 µM) phosphorylated with pGEX-PmrBc T156R beads, 100 µl applied individually to Superdex 200 10/300 GL at 4°C in 1× TBS/1 mM MgCl2/1 mM DTT/10% glycerol, 0.5 ml/min, A280; monomer to dimer. (In general: Size exclusion chromatography separates by hydrodynamic size, large species first.)

Residue numbers refer to the chain shown, from its start.

B1: phosphorylated PmrA (G211) protein from S. enterica serovar Typhimurium (natural protein)
chain: MKILIVEDDTLLLQGLILAAQTEGYACDGVSTARAAEHSLESGHYSLMVLDLGLPDEDGLHFLTRIRQKKYTLPVLILTARDTLNDRITGLDVGADDYLVKPFALEELHARIRALLRRHNNQGESELTVGNLTLNIGRHQAWRDGQELTLTPKEYALLSRLMLKAGSPVHREILYNDIYNWDNEPSTNTLEVHIHNLRDKVGKSRIRTVRGFGYMLVATEES
modifications: phosphorylated (PmrA-P; phospho-Asp, residue number not given)
notes: PmrA, response regulator of the PmrA/PmrB two-component system, S. enterica serovar Typhimurium 14028s; glycine at position 211; In gel filtration a mixture of monomer and dimer; probably the whole 222-residue protein; also called PmrA-P; PmrA-H6
B1: the “Dimer: Monomer (ratio of peak heights, A280)” value was determined as 0.29 and the stoichiometry N (usually a count of units in the complex or per binding partner) amounted to 2.

B2: phosphorylated PmrA (E211) protein from S. enterica serovar Paratyphi B (natural protein)
chain: B1 chain with G211E
modifications: phosphorylated (PmrA-P; phospho-Asp, residue number not given)
notes: PmrA, response regulator of the PmrA/PmrB two-component system, natural allele of S. enterica serovar Paratyphi B (SPV) SARA46; differs from the S. typhimurium PmrA by a single amino acid, glutamate instead of glycine at position 211; also called PmrA-H6
Turning to B2, the “Dimer: Monomer (ratio of peak heights, A280)” value was 0.11 and the “stoichiometry N” value came out at 2.
